From patent US20050069887A1, “Dna synthesis promoters dna polymerase-associated factors and utilization thereof” (priority 2001, published 2005)
Read-outs that look alike come from different tables or passages of the source.

Experiments:
[1] = target: T1, KOD-plus DNA polymerase (Thermococcus kodakarensis, UniProt P77933, DEL407-766/DEL853-1389); format: biochemical, Thermococcus kodakaraensis KOD1; conditions: 2 mM potassium oxalate, FIG. 14
T1 construct: purchased Toyobo
Method: Oxalate ion and DMSO were investigated for their synergistic effectiveness for hot start enzyme in amplification of a target DNA which is difficult to amplify by usual PCR, using a KOD-plus DNA polymerase, i.e., hot start enzyme. Potassium oxalate was added to the PCR buffer supplied with KOD-plus (TOYOBO CO., LTD.) to attain a final concentration of 2 mM. Also used were 0.2 mM dNTPs and […] of a pair of primers of SEQ ID Nos:18 and 19, and 1.0 U KOD-plus DNA polymerase. 0.5 μL of cDNA obtained by reverse transcription of 500 ng of total RNA derived from human cell line K562 with ThermoScript (Invitrogen) was used as a template. This reaction mixture was subjected to PCR by using GeneAmp2400 (PE Applied Biosystems) to investigate the influence on the PCR results of varying the concentration of DMSO. The PCR conditions were as follows: 1 preliminary reaction of 94° C. for 2 minutes, and then 40 cycles of 94° C. for 15 seconds, 60° C. for 30 seconds and 68° C. for 9 minutes.

[2] = tested on: M13 single-stranded DNA; conditions: Takagi et al. 1997; cited from earlier work
[3] = tested on: pMol 21; conditions: PCR product fidelity, rpsL / pMol 21 method; cited from earlier work
[4] = tested on: KOD Dash DNA polymerase; assay: PCR using mixed-type KOD Dash DNA polymerase with PCNA/RFC (Example 3-15); format: biochemical, Thermococcus kodakaraensis KOD1; conditions: 1 ng template, FIG. 34
Method: The effect produced by the combined use of KOD-PCNA protein and the KOD-RFC complex in PCR using a mixture of two kinds of DNA polymerases was investigated with the same target DNA and reaction solution as in Example 3-12
1 ng of genomic DNA derived from human cell line K562 was used as a template. KOD Dash DNA polymerase, which is a mixture of KOD DNA polymerase and KOD (exo-) DNA polymerase which has lost KOD 3′-5′ exonuclease activity, was used as the mixed-type DNA polymerase.

[5] = target: T2, KOD DNA polymerase (Thermococcus kodakarensis, UniProt P77933, DEL407-766/DEL853-1389); assay: PCR of 3.6 kb globin cluster DNA using KOD DNA polymerase with PCNA/RFC (Examples 3-12 to 3-14); format: biochemical, Thermococcus kodakaraensis KOD1
T2 sequence (P77933 other isoform, or with tags, fused parts or gaps DEL407-766/DEL853-1389): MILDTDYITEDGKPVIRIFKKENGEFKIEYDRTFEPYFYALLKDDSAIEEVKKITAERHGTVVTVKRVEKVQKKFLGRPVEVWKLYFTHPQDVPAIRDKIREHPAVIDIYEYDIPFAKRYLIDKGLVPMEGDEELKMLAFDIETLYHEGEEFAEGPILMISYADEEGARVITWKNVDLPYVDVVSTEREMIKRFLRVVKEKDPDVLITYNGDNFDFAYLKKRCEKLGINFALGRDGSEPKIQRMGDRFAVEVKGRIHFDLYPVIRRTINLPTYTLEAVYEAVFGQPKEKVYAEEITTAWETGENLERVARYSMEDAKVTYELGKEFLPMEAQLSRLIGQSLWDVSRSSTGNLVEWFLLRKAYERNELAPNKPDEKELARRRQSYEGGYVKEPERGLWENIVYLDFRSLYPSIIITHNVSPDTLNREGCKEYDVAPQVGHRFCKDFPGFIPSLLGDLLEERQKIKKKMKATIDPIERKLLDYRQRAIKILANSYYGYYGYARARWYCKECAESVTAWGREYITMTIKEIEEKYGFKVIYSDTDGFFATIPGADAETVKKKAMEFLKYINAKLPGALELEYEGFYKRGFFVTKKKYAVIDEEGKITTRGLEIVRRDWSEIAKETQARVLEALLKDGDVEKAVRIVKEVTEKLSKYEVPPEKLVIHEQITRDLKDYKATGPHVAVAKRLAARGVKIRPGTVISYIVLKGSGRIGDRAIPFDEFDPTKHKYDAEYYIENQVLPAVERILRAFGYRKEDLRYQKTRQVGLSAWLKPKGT
Method: The effect produced by the addition of KOD-PCNA protein on PCR amplification of a 3.6 kb DNA in a human […] cluster was investigated. The PCR buffer supplied with KOD-Plus (TOYOBO CO.,LTD), 0.2 mM dNTPs and 0.3 μM of a pair of primers of SEQ ID Nos:60 and 61 were used. 1 U KOD DNA polymerase was used as a heat-resistant DNA polymerase, and genomic DNA derived from human cell line K562 was used as a template. This reaction mixture was subjected to PCR using GeneAmp2400 (PE Applied Biosystems) to investigate the difference in the PCR results caused by the presence or absence of PCNA. The PCR conditions were as follows: 1 preliminary reaction of 94° C. for 2 minutes; and then 35 cycles of 94° C. for 20 seconds, 60° C. for 30 seconds and 68° C. for 4 minutes.
The effect produced by the addition of the KOD-RFC complex was investigated with the same target DNA and reaction solution as in Example 3-12. The amount of RFC effective for PCR was investigate by using 1 ng of genomic DNA derived from human cell line K562 as a template.
The effect produced by the addition of KOD-PCNA protein and KOD-RFC complex was investigated with the same target DNA and reaction solution as in Example 3-12. 1 ng of genomic DNA derived from human cell line K562 was used as a template and their optimal ratios were investigated.

[6] = target: T2, KOD DNA polymerase; assay: DNA elongation by KOD DNA polymerase on primed M13 mp18 DNA (Examples 3-10, 3-11); format: biochemical, Thermococcus kodakaraensis KOD1
Method: 150 fmol of KOD DNA polymerase was reacted with 1.5 pmol of DNA obtained by annealing an M13 P7 primer (SEQ ID NO:59) to M13 mp18 DNA (circular single-stranded DNA) to determine processivity. 450 fmol, 1.5 pmol, 4.5 pmol and 15 pmol samples of KOD-PCNA obtained in Example 3-6 were added to reaction buffer solutions [20 mM Tris-HCl (pH 7.5 at 75° C.), 10 mM KCl, 6 mM (NH4)2SO4, 2 mM MgCl2, 0.1% Triton X-100, 10 μg/ml BSA]. The mixtures were reacted at 75° C. for varying times: 30 seconds, 60 seconds and 120 seconds, to investigate their degrees of elongation. In the course of the elongation reaction DNA samples were withdrawn at the above reaction times and added to the same quantity of a stop solution (60 mM EDTA, […], 0.1% BPB, 30% glycerol). The obtained DNA samples were separated by 1% alkaline agarose electrophoresis and analyzed to determine the sizes of the synthesized DNA.
KOD DNA polymerase reactions were conducted in a similar manner to Example 3-10 either in the presence of KOD-PCNA or in the copresence of KOD-PCNA and KOD-RFC by using an circular single stranded DNA, which was annealed with a primer, as a substrate. […] This is presumably because almost all the KOD DNA polymerase molecules were available to react with PCNA in the presence of the RFC complex.

[7] = PCNA added in 30 times the molar amount of DNA polymerase

T1 sequence (P77933 other isoform, or with tags, fused parts or gaps DEL407-766/DEL853-1389): as above

With `C[S+](C)[O-]` [DMSO, dimethylsulfoxide] the “amplification of target DNA” value ([1]; 5% DMSO) was “sufficient amplification was observed” and the “amplification of target DNA” value ([1]; in the presence of DMSO, cDNA template) was “an increase in amplification amount was observed”.

For “Taq polymerase: DNA polymerase derived from Thermus aquaticus”, the DNA elongation rate [2] is listed as 61.0 bases/second and the mutation rate [3] is listed as ≥ 4%.

B1: PCNA: proliferating cell nuclear antigen derived from Thermococcus kodakaraensis KOD1, SEQ ID NO: 2 (protein)
chain: MPFEVVFDGAKEFADLIATASNLIDEAAFKFTEEGISMRAMDPSRVVLIDLNLPESIFSKYEVEEPETIGINMDQFKKILKRGKAKDTLILRKGDENFLEITFEGTAKRTFRLPLIDVEELELELPELPFTAKVVLLGEVLKEGIKDASLVSDAIKFIAKENEFTMKAEGETNEVEIRLTLEDEGLLDLEVEEETKSAYGISYLSDMVKGIGKADEVILRFGNEMPLQMEYMIRDEGRLTFLLAPRVEE
modifications: Thermococcus kodakaraensis KOD1; KOD-PCNA
In the case of B1, the “amplification of the target DNA” value ([4]; addition of PCNA) is reported as “amplification of the target DNA was made somewhat clearer”, the “amplification of the target DNA” value ([5]; 10 fmol of PCNA alone, 1 ng template, FIG. 33) is reported as “amplification of the target DNA was barely observed together with a smear” and the “amplification of the target DNA” value ([5]; 30 fmol of PCNA, 1 ng template DNA, FIG. 31) is reported as “amplification of the target DNA was observed”. For the same molecule, the “amplification of the target DNA” value ([5]; PCNA added, 3 ng template DNA, FIG. 31) was “amplification of the target DNA was more clearly observed”, the “increase of PCR sensitivity” value ([5]; addition of PCNA) was “at least 3 fold” and the “DNA elongation rate of KOD DNA polymerase” value [6, 7] was 120 bases per second. For the same molecule, the “DNA elongation rate relative to the sample with no PCNA added” value [6, 7] was “about 3 times”, the DNA elongation rate ([6]; only PCNA added, FIG. 30) was “an increase in the DNA elongation rate was observed” and the “increase of DNA elongation rate compared to single use of KOD DNA polymerase” value ([6]; using KOD-PCNA) was “several fold”.

B2: RFC: replication factor C complex of KOD-mRFCS and KOD-RFCL derived from KOD1 (protein)
chain 1: MSEEVKEVKILEKPWVEKYRPQRLEDIVGQDHIVKRLKHYVKTGSMPHLLFAGPPGVGKTTAALALARELFGENWRHNFLELNASDERGINVIREKVKEFARTKPIGGASFKIIFLDEADALTQDAQQALRRTMEMFSNNVRFILSCNYSSKIIEPIQSRCAIFRFRPLRDEDIAKRIRYIAENEGLELTEEGLQAILYVAEGDLRRAINVLQAAAALDTKITDENVFLVASRARPEDVREMMTLALEGNFLKAREKLRDILLRQGLSGEDVLIQMHKEVFNLPIPEDKKVALADKIGEYNFRLVEGANEMIQLEALLAQFTIMGK
chain 2: MTEVPWVEKYRPRKLSEIVNQEKALEQVRAWVEAWLHGNPPKKKALLLAGPPGVGKTTTVYALANEYGFEVIELNASDERTYEKIERYVQAAYTMDILGKRRKLIFLDEADNIEPSGAREIAKLIDKARNPIIMSANHYWEVPREIRNKAQIVEYKRLTQRDIIKALVRILKREGLEVPKEVLYEIAKRANGDLRAAVNDLQTVVTGGVEDAVEVLAYRDTEKSVFQALAQLFATDNAKRAKLAVLGVDMMPNELLQWIDENVPYVYYRPEDIARAYEALSRADIYLGRAQRTGNYGLWKYATDMMTAGVAVAGIKKKGFVKIYPPKTIKLLTESKEERSLRDSVIKKIMSEMHMAKLEAIETLRYLRVIFENNPDLAAHFVVFLDLSEKEVEFITGDKEKAKTIWAKSMNIEKKLKKEGELEARAKEAERRVEAAEEEETMEAGEPEEELEEVEEEELTEEELEEAEEEIETVGKKEKPEKEKTKKGKQATLFDFLKK
In the case of B2, the “amplification of the target DNA” value ([4]; further addition of RFC to PCNA) is reported as “amplification of the target DNA was greatly clarified” and the “amplification of the target DNA” value ([5]; 1.5 pmol further added to 10 fmol of PCNA, 1 ng template, FIG. 33) is reported as “sufficient amplification was observed”.

B3: Pfu polymerase: DNA polymerase derived from Pyrococcus furiosus (protein, UniProt P61875 1-775, looked up)
DNA polymerase: MILDVDYITEEGKPVIRLFKKENGKFKIEHDRTFRPYIYALLRDDSKIEEVKKITGERHGKIVRIVDVEKVEKKFLGKPITVWKLYLEHPQDVPTIREKVREHPAVVDIFEYDIPFAKRYLIDKGLIPMEGEEELKILAFDIETLYHEGEEFGKGPIIMISYADENEAKVITWKNIDLPYVEVVSSEREMIKRFLRIIREKDPDIIVTYNGDSFDFPYLAKRAEKLGIKLTIGRDGSEPKMQRIGDMTAVEVKGRIHFDLYHVITRTINLPTYTLEAVYEAIFGKPKEKVYADEIAKAWESGENLERVAKYSMEDAKATYELGKEFLPMEIQLSRLVGQPLWDVSRSSTGNLVEWFLLRKAYERNEVAPNKPSEEEYQRRLRESYTGGFVKEPEKGLWENIVYLDFRALYPSIIITHNVSPDTLNLEGCKNYDIAPQVGHKFCKDIPGFIPSLLGHLLEERQKIKTKMKETQDPIEKILLDYRQKAIKLLANSFYGYYGYAKARWYCKECAESVTAWGRKYIELVWKELEEKFGFKVLYIDTDGLYATIPGGESEEIKKKALEFVKYINSKLPGLLELEYEGFYKRGFFVTKKRYAVIDEEGKVITRGLEIVRRDWSEIAKETQARVLETILKHGDVEEAVRIVKEVIQKLANYEIPPEKLAIYEQITRPLHEYKAIGPHVAVAKKLAAKGVKIKPGMVIGYIVLRGDGPISNRAILAEEYDPKKHKYDAEYYIENQVLPAVLRILEGFGYRKEDLRYQKTRQVGLTSWLNIKKS
For B3, the DNA elongation rate [2] is given as 24.8 bases/second.
